From publication PMC6302171

Target: GFP-profilin-1 (UniProt P07737)
Experiment: co-immunoprecipitation, densitometric analysis of immunoblots
Settings: HEK293 cells; cell lysate (1 mg); three independent experiments; parent: est. 6.8; read off a plot

Chain of 3×FLAG-CLIC4 WT, Q9Y696 C35A (Q9Y696 whole entry C35A): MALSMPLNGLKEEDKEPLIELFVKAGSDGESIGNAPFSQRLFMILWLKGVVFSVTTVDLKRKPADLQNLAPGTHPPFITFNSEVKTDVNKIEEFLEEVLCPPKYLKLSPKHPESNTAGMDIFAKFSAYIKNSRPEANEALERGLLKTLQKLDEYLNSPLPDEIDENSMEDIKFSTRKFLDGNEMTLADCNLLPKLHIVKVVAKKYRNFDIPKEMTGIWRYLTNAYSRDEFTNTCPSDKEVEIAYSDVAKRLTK
Chain of GFP-profilin-1 (P07737 2-140): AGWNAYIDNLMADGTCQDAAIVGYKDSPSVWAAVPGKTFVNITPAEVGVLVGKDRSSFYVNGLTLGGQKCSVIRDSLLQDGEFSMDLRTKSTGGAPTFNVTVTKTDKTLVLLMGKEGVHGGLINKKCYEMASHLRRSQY

response: 2 A.U.
Substance: 3×FLAG-CLIC4 WT, Q9Y696 C35A
